The test system of assay [1] is CSAp antigen. In words: Mu-9 Direct Binding Assay (ELISA). Details: species or system human. The note with it: wells coated with GW-39 tumor extract fraction, murine Mu-9 as standard. On the procedure: Chimeric antibody supernatant (100 μl) or purified antibody (0-1 μg/ml) was added and incubated at room temperature for 1 hour. Unbound proteins were removed by washing six times with wash buffer (PBS containing 0.05% Tween 20). Purified murine Mu-9 protein was used as the standard. The bound antibodies were allowed to react with peroxidase-conjugated goat anti-human IgG, Fc fragment-specific (Jackson ImmunoResearch, West Grove Pa.) and peroxidase conjugated goat anti-mouse IgG, Fc fragment-specific antibodies (Jackson ImmunoResearch). […] The color was developed in the dark for 1 hour, the reaction was stopped with 50 μl of 4NH2SO4, and the absorbance at 490 nm was measured in a Dynatech plate reader (Dynatech Labs, Sussex, UK).
The methods for expression and binding activity assays for hMu9 were same as described for cMu9. Approximately 10 and 30 μg of linearized hMu9VkpKh and hMu9VHpG1g were co-transfected into SP2/0 cells by electroporation. Transfected cells were grown in 96-well cell culture plates in complete medium for 2 days and then selected by the addition of hygromycin at a final concentration of 500 U/ml. Typically, the colonies began to emerge 2-3 weeks after electroporation and were assayed for antibody secretion by enzyme-linked immunosorbent assay (ELISA). […] The purified antibodies (5 μg) were analyzed by SDS-PAGE on a 4-20% gradient gel under reducing conditions.
In general terms: ELISA stands for enzyme-linked immunosorbent assay.

Assay [2] deals with CSAp antigen. Nature of the assay: Competitive Binding Assay against HRP-conjugated Mu-9. Also noted: species or system human. The note with it: for Competition with the binding of HRP-conjugated Mu-9 to the CSAp antigen: antigen-coated wells, competing antibody 0-50 μg/ml; for Binding affinity to CSAp antigen compared with murine Mu-9: see Example 8-9. The method, then: Murine Mu-9 IgG was conjugated with horseradish peroxidase (HRP) (Sigma). The peroxidase-conjugated Mu-9 was first tested for binding on microwells coated with CSAp antigen, and the optimum concentration was determined to be 0.2 μg/ml. Peroxidase-conjugated Mu-9 was mixed with various concentrations of either murine or chimeric Mu-9 (0-50 μg/ml) before addition to the antigen-coated wells. Binding of the peroxidase-conjugated Mu-9 to the antigen in the presence of the competing antibodies was measured at 490 nm after the addition of the substrate as described earlier.
The binding affinity of hMu-9 was compared in a competitive binding assay as described in Example 6.

B1: cMu-9-2: chimeric Mu-9 constructed from the VH and Vk2 and expressed in Sp2/0 cells (antibody, V domains shown)
VH: QVQLQESGPELVKPGASVKMSCRASGYTFTEYVITWVKQRTGQGLEWIGEIYPGSGSTSYNEKFKGKATLTADKSSNTAYMHLSSLTSEDSAVYFCTREDLGGQGTLVTVSS
VL: DILQTQTPLSLPVSLGDQASISCRSSQSIVHSNGNTYLEWYLQKPGQSPKLLIYKVSNRFSGVPDRFSGTGSGTDFTVRISRVEAEDLGLYYCFQGSRVPYTFGGGTKLEIKR
modifications: human constant regions
notes: chimeric Mu-9 constructed from the VH and Vk2 and expressed in Sp2/0 cells
Turning to B1, the figures for the “Direct binding to CSAp antigen” value with CSAp antigen [1] and in the assay with CSAp antigen [1] (listed as cMu-9) were “virtually superimposable on that of the murine Mu-9” and “bound avidly to the CSAp antigen”, respectively. Besides, in the assay with CSAp antigen [2], the “Competition with the binding of HRP-conjugated Mu-9 to the CSAp antigen” value is reported as “competed equally well”. The “Binding affinity to CSAp antigen compared with murine Mu-9” value is on record as “comparable binding affinity to CSAp antigen as that of murine Mu-9” in the assay with CSAp antigen [2] and “comparable to that of its murine counterpart” in the assay with CSAp antigen [2] (listed as cMu-9).

B2: murine Mu-9: murine monoclonal antibody of the IgG1 subtype, directed against the colon-specific antigen-p mucin (CSAp) (antibody, listed as Murine sp., V domains shown)
VH: VQLQESGPELVKPGASVKMSCRASGYTFTEYVITWVKQRTGQGLEWIGEIYPGSGSTSYNEKFKGKATLTADKSSNTAYMHLSSLTSEDSAVYFCTREDLGGQGTLVTVSS
VL: AVLMTQTPLSLPVSLGDQASISCRSSQSIVHSNGNTYLEWYLQKPGQSPKLLIYKVSNRFSGVPDRFSGTGSGTDFTVRISRVEAEDLGLYYCFQGSRVPYTFGGGTKLEIK
modifications: murine IgG1 constant regions
As to B2, the “Competition with the binding of HRP-conjugated Mu-9 to the CSAp antigen” value in the assay with CSAp antigen [2] is listed as “competed equally well”.

The values above are taken from patent publication US7641891B2, “Chimeric, human and humanized anti-CSAp monoclonal antibodies” (Immunomedics, Inc., priority 1998, dated 2010).
